# From patent US5719039A, “Enzyme-surfactant ion-pair complex catalyzed reactions in organic solvents” (University of Iowa Research Foundation, priority 1995, dated 1998)
# What was measured:
# CT = CT (Bos taurus, UniProt P00766); assay: Transesterification with CT pre-inactivated by PMSF; assay type: biochemical; conditions: PMSF 0.3 mM
# Experimental: Values for kcat /Km were determined by nonlinear fit of the kinetic data and represent averages of triplicate measurements with standard deviations in each case of less than 5%. Initial rates of formation of N-acetyl-L-phenylalanine propyl ester were determined by gas chromatography (530-μm fused silica gum (Hewlett-Packard)). […] Saturation kinetics could not be determined for reactions with CT suspended in isooctane as the solubility limit for the substrate in this solvent is substantially below the Km of the enzyme.
# [1] = Extraction of enzyme from aqueous solution into isooctane containing 2 mM AOT; assay type: physicochemical
# [2] = source not stated; cited from earlier work
# [3] = source not stated; cited from earlier work; remark: listed apart in the source
# [4] = 1 mg/ml aqueous enzyme, pH 7.8, 2 mM CaCl2, 2 mM AOT in isooctane
Molecule,reaction with pre-inactivated CT (CT),"Extraction Yield (enzyme in organic phase) [1, 4]",pI [2],pH of maximal activity [3],"Extraction Yield (enzyme in organic phase) ([1]; 0.5 mg/ml aqueous papain, pH 7.8, CaCl2, MnCl2, KCl, 2 mM AOT in isooctane)","extraction ([1]; 1 mg/ml aqueous solution, pH 7.8, 2 mM AOT in isooctane)"
O=S(=O)(F)Cc1ccccc1 [phenylmethanesulfonyl fluoride],No reaction was observed,,,,,
"subtilisin Carlsberg: subtilisin Carlsberg (from Bacillus licheniformis) (protein, UniProt P00780 106-379, looked up) Subtilisin Carlsberg: AQTVPYGIPLIKADKVQAQGFKGANVKVAVLDTGIQASHPDLNVVGGASFVAGEAYNTDGNGHGTHVAGTVAALDNTTGVLGVAPSVSLYAVKVLNSSGSGSYSGIVSGIEWATTNGMDVINMSLGGASGSTAMKQAVDNAYAKGVVVVAAAGNSGSSGNTNTIGYPAKYDSVIAVGAVDSNSNRASFSSVGAELEVMAPGAGVYSTYPTNTYATLNGTSMASPHVAGAAALILSKHPNLSASQVRNRLSSTATYLGSSFYYGKGLINVEAAAQ",,0.3 mg/mL,8.5,~7.8,,
"papain: papain, pI of about 8.75 and maximal activity at pH 7.8 (protein, UniProt P00784 134-345, looked up) Papain: IPEYVDWRQKGAVTPVKNQGSCGSCWAFSAVVTIEGIIKIRTGNLNEYSEQELLDCDRRSYGCNGGYPWSALQLVAQYGIHYRNTYPYEGVQRYCRSREKGPYAAKTDGVRQVQPYNEGALLYSIANQPVSVVLEAAGKDFQLYRGGIFVGPCGNKVDHAVAAVGYGPNYILIKNSWGTGWGENGYIRIKRGTGNSYGVCGLYTSSFYPVKN",,,about 8.75,7.8,0.35 mg/mL,
"Subtilisin BPN': subtilisin BPN' (from Bacillus amyloliquefaciens) (protein, UniProt P00782 108-382, looked up) Subtilisin BPN': AQSVPYGVSQIKAPALHSQGYTGSNVKVAVIDSGIDSSHPDLKVAGGASMVPSETNPFQDNNSHGTHVAGTVAALNNSIGVLGVAPSASLYAVKVLGADGSGQYSWIINGIEWAIANNMDVINMSLGGPSGSAALKAAVDKAVASGVVVVAAAGNEGTSGSSSTVGYPGKYPSVIAVGAVDSSNQRASFSSVGPELDVMAPGVSIQSTLPGNKYGAYNGTSMASPHVAGAAALILSKHPNWTNTQVRSSLENTTTKLGDSFYYGKGLINVQAAAQ",,0.4 mg/mL,9.4,7.8,,40%
